These results are taken from US20230303674A1.

For assay [1], the target named is human α-CGRP fragment 25-37 (human). The experiment in a line: Biacore SPR, 25 °C, Fab flowed over biotinylated peptide on SA chip; mean ± SD of two measurements. (Surface plasmon resonance follows binding to a sensor surface in real time, without labels.)
In assay [2] the target is human α-CGRP fragment 19-37 (human). The assay is described as above.
In assay [3] the target is human α-CGRP K35A (19-37) (human). As to the kind of experiment: Biacore SPR, 25 °C, Fab over peptide on chip; KD ratio to parent 19-37.
Assay [4] concerns the target human α-CGRP V32A (25-37) (human). As to the kind of experiment: Biacore SPR, 25 °C, Fab over peptide on chip; KD ratio to parent 25-37.
The target of assay [5] is human α-CGRP N31A (25-37) (human). Described as above.
Assay [6] concerns the target human α-CGRP G33A (25-37) (human). Described as above.
The target in assay [7] is human α-CGRP F27A (25-37) (human). The description is as above.
Assay [8] deals with human α-CGRP V28A (25-37) (human). The assay is described as above.
Assay [9] deals with human α-CGRP S34A (25-37) (human). The assay is described as above.
Assay [10] concerns the target human α-CGRP T30A (25-37) (human). The assay is described as above.
Assay [11] addresses human α-CGRP F37A (25-37) (human). The description is as above.
Assay [12] concerns the target human α-CGRP P29A (25-37) (human). Described as above.
The target of assay [13] is human α-CGRP 1-37 (WT) (human). As to the kind of experiment: Biacore 25°C, Fab over biotinylated CGRP on SA chip.
Assay [14] addresses human α-CGRP 1-37 (WT) (human). As to the kind of experiment: Biacore 37°C, Fab over biotinylated CGRP on SA chip.
The target of another assay is rat α-CGRP (1-37) (rat). The description is as above.
Chain of rat α-CGRP (1-37) (rat) (peptide, as listed by the source): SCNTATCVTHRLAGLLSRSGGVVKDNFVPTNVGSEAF

Chain of human α-CGRP 1-37 (WT) (human) (peptide, as listed by the source): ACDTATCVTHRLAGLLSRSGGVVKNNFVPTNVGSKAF

Take “murine anti-CGRP monoclonal antibody 7E9, Fab fragment”: the Kd came to 0.14 nM in assay [1]; 1.1 nM in assay [2]; 1 nM in assay [13]; 0.9 nM in [14]; 47 nM in the assay with rat α-CGRP (1-37) (rat). Moreover, the KD(mutant/parent) was determined as 4 in [3]; 41 in assay [4]; 9 in [5]; 1260 in assay [6]; 1 in assay [7]; 1 in [8]. Besides, the KD(mutant/parent) in [9] came to 69; in assay [10], 7; in [11] it was 3600; in assay [12], 26.

Usually Kd stands for the equilibrium constant for the complex coming apart. Read a low Kd as tighter binding.
